Experimental data: patent publication US20200231652A1 (NATIONAL RESEARCH COUNCIL OF CANADA, published 2020)

Target: RSV-F (UniProt P03420 26-529)
Experiment: SPR, similar method as for Cetuximab

RSV-F, sequence (P03420 26-529): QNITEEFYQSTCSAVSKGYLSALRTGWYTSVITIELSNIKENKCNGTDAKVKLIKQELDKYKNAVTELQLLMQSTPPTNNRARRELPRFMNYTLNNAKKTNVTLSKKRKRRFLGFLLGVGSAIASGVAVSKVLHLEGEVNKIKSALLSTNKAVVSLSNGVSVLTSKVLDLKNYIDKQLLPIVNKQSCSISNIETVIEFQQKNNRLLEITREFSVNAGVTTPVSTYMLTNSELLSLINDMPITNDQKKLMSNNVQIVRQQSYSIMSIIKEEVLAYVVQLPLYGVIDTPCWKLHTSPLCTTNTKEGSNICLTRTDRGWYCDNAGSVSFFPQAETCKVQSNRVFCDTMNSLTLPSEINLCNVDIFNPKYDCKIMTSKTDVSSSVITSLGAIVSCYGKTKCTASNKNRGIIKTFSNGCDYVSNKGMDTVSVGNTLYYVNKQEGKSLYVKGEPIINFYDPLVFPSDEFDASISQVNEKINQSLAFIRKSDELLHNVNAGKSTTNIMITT

B1: Synagis (antibody, human IgG1, kappa, V domains shown)
VH: QVTLRESGPALVKPTQTLTLTCTFSGFSLSTSGMSVGWIRQPPGKALEWLADIWWDDKKDYNPSLKSRLTISKDTSKNQVVLKVTNMDPADTATYYCARSMITNWYFDVWGAGTTVTVSS
VL: DIQMTQSPSTLSASVGDRVTITCKCQLSVGYMHWYQQKPGKAPKLLIYDTSKLASGVPSRFSGSGSGTEFTLTISSLQPDDFATYYCFQGSGYPFTFGGGTKLEIKR
- Kd: 6.6 nM
